Source: patent US20250066831

Key:
[1] = system: V40 elastin-like polypeptide fused to CVLL
[2] = system: ELP-CVLS (protein substrate of the in vitro farnesylation reaction)

Chain of V40 elastin-like polypeptide fused to CVLL (chain, as listed by the source): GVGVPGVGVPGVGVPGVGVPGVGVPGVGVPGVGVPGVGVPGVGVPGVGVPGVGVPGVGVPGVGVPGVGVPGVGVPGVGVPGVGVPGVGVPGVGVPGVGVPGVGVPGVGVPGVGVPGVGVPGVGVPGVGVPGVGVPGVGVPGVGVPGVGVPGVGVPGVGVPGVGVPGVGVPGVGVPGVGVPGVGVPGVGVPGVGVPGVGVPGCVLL

Substance | farnesylation on co-expression in E. coli (HPLC, MALDI-TOF MS, NMR of purified V40-Fr) [1] | in vitro farnesylation (3 µM ELP-CVLS, 0.2 µM FTase, 10 µM FPP, RP-HPLC) [2]
geranylgeranyl transferase type I (GGTase-I) from Rattus norvegicus, heterodimer of alpha and beta subunits | only one farnesyl group is added to the protein at the cysteine residue located in the C-terminal CaaX motif | 
farnesyltransferase (FTase) from Rattus norvegicus, heterodimer of alpha and beta subunits |  | In vitro farnesylation of ELPs with the soluble transferase (produced as a translationally coupled heterodimer) indicates that the recombinantly expressed enzyme is active
